The values below are quoted from earlier work in publication PMC2868910.

The target in this data set is thrombomodulin (Homo sapiens) (UniProt P07204).

For thrombin (from UniProt P00734), the Kd is 0.5 nM.
